The target in the assay is p11-AnxA2 peptide cassette (UniProt P60903). Kind of assay: crystal structure.

Consider “p11-AnxA2 peptide cassette (from UniProt P60903 1-97)”, for which the stoichiometry N (in general, the number of molecules, sites or subunits per partner or assembly) came out at 2.

Source of the values: article PMC3633087.
